T1: human DLL3 (human, UniProt Q9NYJ7 27-492, limits assumed)
T1 construct: also called hDLL3; DLL3 protein
T1 sequence: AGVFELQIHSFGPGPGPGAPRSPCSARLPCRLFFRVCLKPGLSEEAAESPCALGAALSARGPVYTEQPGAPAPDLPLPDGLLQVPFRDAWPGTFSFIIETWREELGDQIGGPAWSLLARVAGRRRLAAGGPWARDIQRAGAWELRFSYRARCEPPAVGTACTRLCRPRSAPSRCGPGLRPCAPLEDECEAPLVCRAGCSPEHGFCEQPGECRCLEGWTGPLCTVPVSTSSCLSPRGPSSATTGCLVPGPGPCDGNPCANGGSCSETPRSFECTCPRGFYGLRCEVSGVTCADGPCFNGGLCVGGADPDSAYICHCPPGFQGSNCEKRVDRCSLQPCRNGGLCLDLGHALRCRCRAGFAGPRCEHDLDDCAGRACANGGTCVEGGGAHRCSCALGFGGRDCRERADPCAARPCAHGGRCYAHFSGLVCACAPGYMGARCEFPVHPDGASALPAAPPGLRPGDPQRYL

T2: DLL3 extracellular domain (amino acids 27-466) (human, UniProt Q9NYJ7 27-466)
T2 construct: also called DLL3 ECD; wild type DLL3 ECD
T2 sequence: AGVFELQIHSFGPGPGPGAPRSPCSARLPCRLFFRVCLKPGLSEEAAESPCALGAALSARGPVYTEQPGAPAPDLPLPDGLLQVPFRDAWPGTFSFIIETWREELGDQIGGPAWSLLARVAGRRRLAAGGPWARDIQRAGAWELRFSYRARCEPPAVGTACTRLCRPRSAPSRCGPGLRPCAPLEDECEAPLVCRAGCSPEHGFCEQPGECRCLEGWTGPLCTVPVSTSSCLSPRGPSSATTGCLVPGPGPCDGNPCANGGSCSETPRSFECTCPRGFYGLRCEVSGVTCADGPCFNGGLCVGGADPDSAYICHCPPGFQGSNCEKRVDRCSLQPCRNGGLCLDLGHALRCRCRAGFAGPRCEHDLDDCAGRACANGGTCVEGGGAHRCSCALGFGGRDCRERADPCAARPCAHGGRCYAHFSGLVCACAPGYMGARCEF

T3: hASCL1 in 293 cells engineered to express ASCL1 (293-ASCL1) (human, UniProt P50553 1-236)
T3 construct: whole, on cells; also called DDDK-tagged hASCL1 from pLMEGPA-hASCL1-NFlag
T3 sequence (looked up): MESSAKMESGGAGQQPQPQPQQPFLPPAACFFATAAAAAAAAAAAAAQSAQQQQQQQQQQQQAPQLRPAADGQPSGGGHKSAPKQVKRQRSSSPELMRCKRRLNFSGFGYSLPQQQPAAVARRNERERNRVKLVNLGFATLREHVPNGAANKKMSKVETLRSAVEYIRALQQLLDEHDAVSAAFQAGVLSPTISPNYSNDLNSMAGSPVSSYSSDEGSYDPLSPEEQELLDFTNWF

T4: human ASCL1 (human, UniProt P50553 1-236, limits assumed)
T4 construct: Transcription factor; also called hASCL1; immobilized human ASCL1
T4 sequence (looked up): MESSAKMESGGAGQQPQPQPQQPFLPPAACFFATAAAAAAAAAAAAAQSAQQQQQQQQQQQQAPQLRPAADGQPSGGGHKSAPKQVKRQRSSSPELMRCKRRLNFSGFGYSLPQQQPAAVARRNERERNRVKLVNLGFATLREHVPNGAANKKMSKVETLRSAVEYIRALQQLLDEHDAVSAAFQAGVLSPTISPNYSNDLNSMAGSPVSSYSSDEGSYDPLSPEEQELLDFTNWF


Legend:
human DLL3 = target: T1, human DLL3; assay: screen on immobilized hDLL3 or h293-hDLL3 cells
Procedure, shortened: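 Solid-phase ELISA on DLL3-His (0.5 μg/ml coating), developed with HRP anti-mouse IgG and TMB and read at OD 450, was one screen for supernatants of single-cell hybridomas from human DLL3-immunized mice taken after 10 days in culture. Flow-cytometry binding counted as positive only above the control.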

[1] = target: T2, DLL3 extracellular domain (amino acids …); assay: fine epitope mapping (phage display peptides or yeast display of DLL3 ECD mutants)
Description: Fine epitope mapping was further performed on selected antibodies using one of two methods. The first method employed the Ph.D.-12 phage display peptide library kit (New England Biolabs) which was used in accordance with the manufacturer's instructions. The antibody for epitope mapping was coated overnight at 50 μg/mL in 3 mL 0.1 M sodium bicarbonate solution, pH 8, onto a Nunc MaxiSorp tube (Nunc). The tube was blocked with 3% BSA solution in bicarbonate solution. Then, […] input phage in PBS+0.1% Tween-20 was allowed to bind, followed by ten consecutive washes with 0.1% Tween-20 to wash away non-binding phage. Remaining phage were eluted with 1 mL 0.2 M glycine for 10 minutes at room temperature with gentle agitation, followed by neutralization with 150 μL 1M Tris-HCl pH 9. Eluted phage were amplified and panned again with 10¹¹ input phage, using 0.5% Tween-20 during the wash steps to increase selection stringency. DNA from 24 plaques of the eluted phage from the second round was isolated using the Qiaprep M13 Spin kit (Qiagen) and sequenced. Binding of clonal phage was confirmed using an ELISA assay, where the mapped antibody or a control antibody was coated onto an ELISA plate, blocked, and exposed to each phage clone. Phage binding was detected using horseradish peroxidase conjugated anti-M13 antibody (GE Healthcare), and the 1-Step Turbo TMB ELISA solution (Pierce). Phage peptide sequences from specifically binding phage were aligned using Vector NTI (Life Technologies) against the antigen ECD peptide sequence to determine the epitope of binding.
Alternatively, a yeast display method (Chao et al., 2007, PMID: 17406305) was used to map the epitopes of selected antibodies. Libraries of DLL3 ECD mutants were generated with error prone PCR using nucleotide analogues 8-oxo-2′deoxyguanosine-5′-triphosphate and 2′-deoxy-p-nucleoside-5′triphosphate (TriLink Bio) for a target mutagenesis rate of one amino acid mutation per clone. These were transformed into a yeast display format. […]

[2] = target: T3, hASCL1 in 293 cells engineered to …; assay: immunohistochemistry on FFPE sections, antibody at 10 ug/ml
Description: IHC was performed essentially as follows. Planar sections of formalin fixed and paraffin embedded (FFPE) tissues were cut and mounted on glass microscope slides. After xylene de-paraffinization 5 μm sections were pre-treated with Antigen Retrieval Solution (Dako) for 20 mins. at 99° C., cooled to 75° C. and then treated with 0.3% hydrogen peroxide in PBS followed by Avidin/Biotin Blocking Solution (Vector Laboratories). FFPE slides were then blocked with 10% horse serum in 3% BSA in PBS buffer and incubated with a primary anti-ASCL1 antibody (clone SC72.2), diluted to 10 μg/ml in 3% BSA/PBS, for 30 mins. at room temperature. The FFPE slides were incubated with biotin-conjugated horse anti-mouse antibody (Vector Laboratories), diluted to 2.5 μg/ml in 3% BSA/PBS, for 30 mins. at room temperature followed by incubation in streptavidin-HRP (ABC Elite Kit; Vector Laboratories). Chromogenic detection was developed with 3,3′-diaminobenzidine (Thermo Scientific) for 5 mins. at room temperature and tissues were counterstained with Meyer's hematoxylin (IHC World), washed with alcohol and immersed in xylene. Sections were then viewed by brightfield microscopy and ASCL1 expression was noted.
PDX tumors were stained by IHC (FIG. 12) and ASCL1 protein expression by IHC correlates with the expected ASCL1 mRNA expression based on microarray results.

human ASCL1 = target: T4, human ASCL1; assay: screen on immobilized hASCL1 or h293-hASCL1 cells

Row | Binder | binding result (human DLL3) | binding result [1] | binding result [2] | binding result (human ASCL1)
1 | SC16.23 (antibody, V domains shown, murine mAb) VH: QVTLKESGPGILQPSQTLSLTCSFSGFSLSTSNTGIGWIRQPSGTGLEWLAHIWWNDDKYYNPSLKSRLTISKETSNNQVFLKITNVDTADTASYFCVQIGRDYSNYAWYFDVWGAGTTVTVSS VL: QIVLTQSPAIMSASPGEKVTLTCSASSSVSSRYLYWYQQKPGSSPKLWIYSTSNLASGVPARFSGSGSGTSYSLIISSMEAEDAASYFCHQWSNYPLTFGAGTKLELK | binds | binds | – | –
2 | SC72.2 (antibody, V domains shown, murine mAb; also called anti-ASCL1 antibody clone SC72.2) VH: QVQLQQSGAELVRPGASVTLSCKASGYTFIDYEMHWVKQTPVHGLEWIGAIDPETGGTTYNQNFKGKATLTADKSSNTAYMELRSLTSGDSAVYYCSRGGLDYWGQGTTLTVSS VL: not shown | – | – | binds | binds

Results, then the binder that gave them:

Row | binding result (human DLL3) | binding result [1] | binding result [2] | binding result (human ASCL1) | Binder
3 | binds | binds | – | – | SC16.34 (antibody, V domains shown, murine mAb) VH: QIQLVQSGPELKRPGETVKISCKASGYTFTNYGMNWVKQAPGKGLKWMGWINTYTGDPTYADDFKGRFAFSLETSASTAYLQINNLKNEDTATYFCARIGGNSPSDYWGQGTSLTVSS VL: SIVMTQTPKFLLVSAGDRVTITCKASQSVSNDVAWYQQKPGQSPKLLIYYASNRYSGVPDRFTGSGYGTDFTFTISTVQAEDLAVYFCQQDYSSPWTFGGGTKLEIK
4 | binds | binds | – | – | SC16.56 (antibody, V domains shown, murine mAb) VH: QIQLVQSGPELKKPGETVKISCKASGYTFTNYGMNWVKQAPGKGLKWMAWINTYTGEPTYADDFKGRFAFSLETSASTASLQIINLKNEDTATYFCARIGDSSPSDYWGQGTTLTVSS VL: SIVMTQTPKFLLVSAGDRVTITCKASQSVSNDVVWYQQKPGQSPKLLIYYASNRYTGVPDRFAGSGYGTDFSFTISTVQAEDLAVYFCQQDYTSPWTFGGGTKLEIR

Reference: US20190201542A1 (AbbVie / Abbott, published 2019)
